Experimental data from patent publication EP4306640A1.

Target: human CXCR4 (C-X-C chemokine receptor type 4), endogenous on human leukemia cell lines (human) (UniProt P61073)
Assay: cell-based or functional assay

Sequence of UniProt P61073 (P61073 whole entry): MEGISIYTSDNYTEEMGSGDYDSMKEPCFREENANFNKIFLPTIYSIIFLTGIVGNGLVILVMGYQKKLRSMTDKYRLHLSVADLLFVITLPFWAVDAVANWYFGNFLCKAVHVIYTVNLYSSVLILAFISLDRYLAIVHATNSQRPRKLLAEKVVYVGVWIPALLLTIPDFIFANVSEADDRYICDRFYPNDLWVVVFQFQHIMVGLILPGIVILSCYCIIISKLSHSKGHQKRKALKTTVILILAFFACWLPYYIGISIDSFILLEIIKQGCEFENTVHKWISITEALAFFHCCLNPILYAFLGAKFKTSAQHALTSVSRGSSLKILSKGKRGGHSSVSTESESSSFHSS

stimulation of migration of BV-173 cells (chemotaxis assay), half-maximal stimulation: 3 nM
stimulation of migration of Jurkat cells (chemotaxis assay), half-maximal stimulation: 0.3 nM
stimulation of migration of Nalm-6 cells (chemotaxis assay), half-maximal stimulation: 0.3 nM
stimulation of migration of U937 cells (chemotaxis assay), half-maximal stimulation: 3 nM
Substance: human CXCL12α (ligand)
